This is an account of results in US7704703B2, “Arf and Hdm2 interaction domains and the methods of use thereof” (St. Jude Children's Research Hospital, Inc., priority 2002, dated 2010).

Assay [1] addresses T1, Hdm2 210-304 (Homo sapiens, UniProt Q00987).
T1 construct: poly-His (thrombin cleavable, pET28a) (cleaved yes); made in house; host or cells: E. coli BL21(DE3)
Briefly: Surface plasmon resonance: Arf library peptides binding to immobilized His-tagged Hdm2 210-304. To be noted: 15 amino acid peptides; maximal SPR signal after binding for 10 minutes. How it is done: Surface Plasmon Resonance. Binding studies were performed using a Biacore 3000 surface plasmon resonance (SPR) instrument (Biacore, Inc.). A Tetra-His™ Antibody (Qiagen, Inc.; Cat. #34670) was covalently attached to a carboxymethylated gold surface (C-1 chip; Biacore, Inc.). The carboxymethyl groups on the surface were activated with N-ethyl-N′-(3-dimethylaminopropyl) carbodiimide (EDC) and N-hydroxysuccinimide (NHS) and the antibody was attached at pH 7.4 in 20 mM sodium phosphate buffer, 150 mM NaCl (PBS). Reactive sites remaining on the surface were blocked by reaction with ethanolamine. […] Binding was measured by flowing the non-His-tagged analyte through the reference and ligand-containing flow cells in sequence. […] Changes in the SPR response due to solvent differences and the injection process were monitored by injection of HBS-N buffer alone. […]
Two libraries of peptides 15 amino acids in length were synthesized based on the sequence of exon 1β of mouse p19^Arf and the entire sequence of human p14^Arf. […] The ability of these peptides to bind Hdm2 fragments was determined using the surface plasmon resonance (SPR) technique with a Biacore 3000 instrument. […] Relative binding affinity was judged on the basis of the maximal SPR signal detected after binding for 10 minutes.
(In general: In SPR one partner is held on a chip, and binding of the other changes the refractive index at the surface.)

Assay [2] deals with T1, Hdm2 210-304. Briefly: CD-based binding assay, induction of β-strand secondary structure with Hdm2 210-304. As to the method: Circular Dichroism. Spectra were recorded at 25° C. using an Aviv Model 62A DS circular dichroism spectropolarimeter (Aviv Instruments, Inc.) equipped with a thermoelectric temperature control unit. All samples were prepared in 10 mM Tris-HCl, pH 7.0 at 0.02-0.2 mM as determined by amino acid analysis. Spectra were recorded using 1 mm quartz cuvettes and reported spectra are the average of 10 scans over the range […]. Melting experiments were recorded in 10 mm quartz cuvettes with active stirring. The signal at 216 nm (β strand minimum) was used to monitor structural changes and the signal was averaged over 15 sec. The sample temperature was increased in 1° C. steps. […]
Characterization of Arf Hdm2 assemblies. […] The binding of mArfN37 to Hdm2 210-304, as monitored in this way, is saturable. […]
To investigate the roles of individual Arf motifs (A1 and A2) and Arf-binding segments of Hdm2 (H1 and H2) in the interactions between Arf and Hdm2 the binding of peptides containing these small segments (A1, A2, H1, or H2) to larger protein fragments of the corresponding binding partner (mArfN37 or Hdm2 210-304) were monitored using the CD-based binding assay. […] Peptides from the Hdm2 library that were positive for mArfN37 binding on the basis of SPR (i.e. those within H1 and H2) were mixed with mArfN37 and binding was monitored in the same manner. […]

A further assay deals with T2, Hdm2 210-275 (Homo sapiens, UniProt Q00987).
T2 construct: poly-His (thrombin cleavable, pET28a) (cleaved yes); made in house; host or cells: E. coli BL21(DE3)
The experiment in a line: CD-based binding assay, induction of β-strand secondary structure with Hdm2 210-275. As to the method: Circular Dichroism. Spectra were recorded at 25° C. using an Aviv Model 62A DS circular dichroism spectropolarimeter (Aviv Instruments, Inc.) equipped with a thermoelectric temperature control unit. All samples were prepared in 10 mM Tris-HCl, pH 7.0 at 0.02-0.2 mM as determined by amino acid analysis. Spectra were recorded using 1 mm quartz cuvettes and reported spectra are the average of 10 scans over the range […]. Melting experiments were recorded in 10 mm quartz cuvettes with active stirring. The signal at 216 nm (β strand minimum) was used to monitor structural changes and the signal was averaged over 15 sec. The sample temperature was increased in 1° C. steps.
β-strand secondary structure forms when Arf and Hdm2 interact. […] This structural transition is induced when mArfN37 is added to an Hdm2 fragment and when an Hdm2 fragment is added to mArfN37. […] In contrast, the uncomplexed species elute at times consistent with monodisperse, conformationally extended polypeptides. Second, NMR resonances for ^15N-mArfN37 or ^15N-Hdm2 210-304 (and ^15N-Hdm2 210-275) are broadened beyond detection when an unlabeled form of the appropriate binding partner is added to the solution. At mArfN37:Hdm2 210-304 (or mArfN37:Hdm2 210-275) molar ratios that produce maximal β-strand secondary structure based on ellipticity at 200 nm using CD, resonances cannot be observed for the isotope-labeled component of Arf/Hdm2 mixtures. Further, the NMR spectra are consistent with slow exchange between the free and bound states.
Characterization of Arf Hdm2 assemblies. As discussed above, the addition of mArfN37 to Hdm2 210-304 results in the formation of supramolecular assemblies comprised of β-strands. Stepwise addition of sub-stoichiometric amounts of mArfN37 to Hdm2 210-304 increased β-strand secondary structure content as judged by the change in ellipticity at 200 nm using CD. […] The binding of mArfN37 to Hdm2 210-304, as monitored in this way, is saturable. Similar results were obtained when mArfN37 was mixed with the shorter fragment of Hdm2, Hdm2 210-275. Further, saturable binding is also observed when the Hdm2 fragments were added to an excess of mArfN37. These findings indicate that there are a limited number of binding sites for mArfN37 within Hdm2 210-304 and that discreet structures (containing β-strands) form when mArfN37 and Hdm2 210-304 (or 210-275) are mixed. […] Similar behavior is observed when mArfN37 binds Hdm2 210-275.

Where no end group is shown, it is not given here.

T1 sequence (Q00987 210-304): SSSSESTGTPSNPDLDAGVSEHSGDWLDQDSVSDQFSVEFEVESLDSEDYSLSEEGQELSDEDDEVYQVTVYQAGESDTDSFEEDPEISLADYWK
T2 sequence (Q00987 210-275): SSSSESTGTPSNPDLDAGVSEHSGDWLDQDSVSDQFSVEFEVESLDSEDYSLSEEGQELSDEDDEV

For the substance “mouse Arf peptide residues 31-45: mouse p19^Arf library 15-mer spanning residues 31-45, contains the RRPR nucleolar localization signal (RRPRTASCALAFVNM; UniProt Q64364 31-45, looked up, fragment)”, the “binding of Arf library peptides to Hdm2 210-304 (SPR)” value with Hdm2 210-304 [1] is listed as “bind Hdm2 210-304”. On the same count and under the same terms, in the case of “human Arf peptide residues 86-100: human p14^Arf library 15-mer spanning residues 86-100, contains the NoLS RRPR (LRRPRHSHPTRARRC; UniProt Q8N726 86-100, looked up, fragment)” it was “binds Hdm2 210-304”. In the case of “mArfN37: peptide containing the N-terminal 37 amino acids of mouse Arf (p19^Arf residues 1-37, SEQ ID NO:16) (MGRRFLVTVRIQRAGRPLQERVFLVKFVRSRRPRTAS; also: His tag; listed as Mus musculus)”, in the assay with Hdm2 210-304 [2], the “induction of β-strand secondary structure when mixed with Hdm2 210-304 (CD)” value is listed as “transition from random conformations to β-strand secondary structure”. For the same substance, the “induction of β-strand secondary structure/assembly when mixed with Hdm2 210-275 (CD)” value in the assay with Hdm2 210-275 is listed as “transition from random conformations to β-strand secondary structure”.
